Measured values taken from patent publication US12319739 (F STAR DELTA, dated 2025).

Legend:
human OX40 = biological target: T1, human OX40 (human, UniProt P43489 29-216); test: SPR, receptor amine-coupled ~1000 RU
T1 sequence (looked up): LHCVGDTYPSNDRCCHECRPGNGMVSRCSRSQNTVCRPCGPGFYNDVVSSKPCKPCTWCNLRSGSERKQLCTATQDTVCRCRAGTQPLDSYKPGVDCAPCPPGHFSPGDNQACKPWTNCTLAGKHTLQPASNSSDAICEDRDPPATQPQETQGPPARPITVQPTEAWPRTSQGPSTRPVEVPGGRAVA
Procedure: (§1) The specificity of the anti-human CD137 Fcabs for human CD137 compared to other related TNFSFR family members was tested. 8 of the Fcabs were tested in mock mAb^2 (HelD1.3) format and measured by SPR in a Biacore T200 (GE Healthcare) by testing for binding to other human TNFRSF receptors: CD40, OX40 and GITR. Amine coupling (amine coupling kit, GE Healthcare, BR-1000-50) was used to coat human CD40, GITR and OX40 to approximately 1000 RU in Biacore CM5 chips (GE Healthcare, cat no 29149603). […] The chip was regenerated by injection of 10 mM glycine pH 2.5 for 12 s at 30 µl/min. Antibodies specific to the different TNFRSF members were used as positive controls to verify Biacore chip coating. Data was double reference subtracted and analysed using BIAevaluation 3.2 software.

human GITR = biological target: T2, human GITR (human, UniProt Q9Y5U5 26-161, limits assumed); test: SPR, receptor amine-coupled ~1000 RU
T2 sequence (looked up): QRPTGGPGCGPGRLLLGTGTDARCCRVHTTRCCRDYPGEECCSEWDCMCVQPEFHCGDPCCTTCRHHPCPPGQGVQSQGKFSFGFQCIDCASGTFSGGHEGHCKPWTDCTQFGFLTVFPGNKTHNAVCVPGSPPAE
Procedure: as §1

human CD40 = human CD40 (human, UniProt P25942 21-193); test: SPR, receptor amine-coupled ~1000 RU
human CD40, sequence (P25942 21-193 limits assumed): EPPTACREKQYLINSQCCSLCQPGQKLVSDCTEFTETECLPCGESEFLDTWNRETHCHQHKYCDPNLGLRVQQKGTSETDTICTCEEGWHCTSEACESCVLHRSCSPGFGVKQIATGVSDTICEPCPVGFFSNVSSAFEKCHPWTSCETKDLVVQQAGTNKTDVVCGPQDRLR
Procedure: as §1

[1] = biological target: human CD137 expressed on cells (human, UniProt Q07011 24-255); test: cell-based or functional assay
human CD137 expressed on cells, sequence (Q07011 24-255): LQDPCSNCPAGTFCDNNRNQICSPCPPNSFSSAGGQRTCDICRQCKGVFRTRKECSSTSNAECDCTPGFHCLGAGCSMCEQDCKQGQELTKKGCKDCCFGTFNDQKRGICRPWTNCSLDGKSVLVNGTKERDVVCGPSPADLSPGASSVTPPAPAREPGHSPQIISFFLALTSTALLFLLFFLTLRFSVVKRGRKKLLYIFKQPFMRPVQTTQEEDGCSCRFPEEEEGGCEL

hCD137-mFc-Avi = biological target: T3, hCD137-mFc-Avi (human; mouse, UniProt Q07011 24-186, one biotin on each Avi tag in the biotinylated form); test: SPR, mAb2 captured by anti-human Fab, antigen in solution
T3 construct: also called human dimeric CD137; human CD137-mFc-Avi
T3 sequence (Q07011 24-186): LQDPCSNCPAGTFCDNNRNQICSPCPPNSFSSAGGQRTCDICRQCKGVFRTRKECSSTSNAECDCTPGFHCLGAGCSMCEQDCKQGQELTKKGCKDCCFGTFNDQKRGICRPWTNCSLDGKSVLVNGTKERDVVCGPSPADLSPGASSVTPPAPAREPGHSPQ
Procedure: (§2) Each mAb^2 was captured to approximately 150 RU by injecting a 3 µg/ml solution of mAb^2 diluted in HBS-EP+buffer (GE Healthcare #BR1006-69) for 60 seconds at 30 µl/min. Then different concentrations of human, cyno or mouse CD137 antigen (unbiotinylated human, cyno or mouse CD137-mFc-Avi or human CD137-Avi-His) in HBS-EP+buffer were flowed over the chip for 3 min at 60 µl/min and then allowed to dissociate for 10 minutes. After each antigen concentration the chip was regenerated by injecting 10 mM glycine pH 2.1 at a flow rate of 30 µl/min for 30 seconds. Buffer HBS-EP+ was injected before the highest concentration of antigen and after the lowest concentration of antigen for reference subtraction, and one of the concentrations at random was repeated twice. The binding kinetics were fit with a 1:1 Langmuir model to generate equilibrium binding constants (K_D) for each sample. Data analysis was performed with BiaEvaluation software version 3.2.

cCD137-mFc-Avi = biological target: T4, cCD137-mFc-Avi (cynomolgus; mouse, one biotin on each Avi tag in the biotinylated form); test: as above
T4 construct: also called cynomolgus dimeric CD137; cyno CD137-mFc-Avi
T4 chain: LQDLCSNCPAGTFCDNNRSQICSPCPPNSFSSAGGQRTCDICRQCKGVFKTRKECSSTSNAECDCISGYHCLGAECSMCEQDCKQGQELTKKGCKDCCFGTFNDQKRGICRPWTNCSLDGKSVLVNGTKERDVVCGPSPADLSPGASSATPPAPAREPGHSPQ
Procedure: as §2

hCD137-Avi-His = biological target: T5, hCD137-Avi-His (human, UniProt Q07011 24-186, single biotin on the Avi tag in the biotinylated form); test: as above
T5 construct: Monomer; also called human monomeric CD137; human CD137-Avi-His
T5 sequence (Q07011 24-186): as the sequence (Q07011 24-186) above
Procedure: as §2

B1: FS22-172-003/HelD1.3 (bispecific antibody, human IgG1, kappa, L234A L235A)
heavy: QVQLQESGPGLVRPSQTLSLTCTVSGSTFSGYGVNWVRQPPGRGLEWIGMIWGDGNTDYNSALKSRVTMLVDTSKNQFSLRLSSVTAADTAVYYCARERDYRLDYWGQGSLVTVSSASTKGPSVFPLAPSSKSTSGGTAALGCLVKDYFPEPVTVSWNSGALTSGVHTFPAVLQSSGLYSLSSVVTVPSSSLGTQTYICNVNHKPSNTKVDKKVEPKSCDKTHTCPPCPAPEAAGGPSVFLFPPKPKDTLMISRTPEVTCVVVDVSHEDPEVKFNWYVDGVEVHNAKTKPREEQYNSTYRVVSVLTVLHQDWLNGKEYKCKVSNKALPAPIEKTISKAKGQPREPQVYTLPPSRDELPYIIPPYNQVSLTCLVKGFYPSDIAVEWESNGQPENNYKTTPPVLDSDGSFFLYSKLTVGADRWLEGNVFSCSVMHEALHNHYTQKSLSLSPG
light: DIQMTQSPASLSASVGETVTITCRASGNIHNYLAWYQQKQGKSPQLLVYNAKTLADGVPSRFSGSGSGTQYSLKINSLQPEDFGSYYCQHFWSTPRTFGGGTKLEIKRTVAAPSVFIFPPSDEQLKSGTASVVCLLNNFYPREAKVQWKVDNALQSGNSQESVTEQDSKDSTYSLSSTLTLSKADYEKHKVYACEVTHQGLSSPVTKSFNRGEC
notes: IgG1
B1: no binding (tested: 1 µM) (human OX40); no binding (tested: 1 µM) (human GITR); no binding (tested: 1 µM) (human CD40). The “NF-κB luciferase reporter EC50, HEK.FRT.luc.hCD137 cells, crosslinked with Protein L (+XL)” value [1] was 32.6 nM, the Kd (hCD137-mFc-Avi) was 1.5 nM and the Kd (cCD137-mFc-Avi) was 1.3 nM. The “human monomeric CD137 KD fold difference relative to human dimeric KD” value (hCD137-Avi-His) was > 200 fold.
